Results: patent publication US20190284280A1 (ANAPTYSBIO, published 2019)

Key:
[1] = biological target: T1, Dimeric soluble human TIM-3 mIgG2a Fc (human; mouse, UniProt Q8TDQ0 22-200); assay: SPR Biacore T200; TIM-3 fusion captured on anti-mouse IgG Fc, antibody flowed over; 1:1 model
T1 construct: Captured on an anti-mouse IgG (Fc-specific) Biacore CM5 surface; also called soluble TIM-3 fusion; not shown: mouse IgG2a Fc
T1 sequence (looked up): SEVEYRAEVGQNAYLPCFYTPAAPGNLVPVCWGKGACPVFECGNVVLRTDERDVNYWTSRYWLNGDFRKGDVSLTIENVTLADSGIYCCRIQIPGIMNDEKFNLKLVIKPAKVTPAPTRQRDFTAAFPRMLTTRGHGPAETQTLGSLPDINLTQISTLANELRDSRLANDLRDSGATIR
Method: SPR analyses were carried out using a Biacore T200, and kinetic constants were determined using Biacore T200 Evaluation software. […] GE anti-mouse IgG (Fc-specific) was immobilized on a Biacore CM5 chip using EDC-activated amine coupling chemistry. Dimeric soluble human TIM-3 mIgG2a Fc was then captured onto this surface to a target capture level of ˜70 RU or less. Next an exemplary anti-TIM-3 antibody (having heavy and light chains as set forth in SEQ ID NOs: 1 & 2, respectively) was flowed over the surface with captured antigen (TIM-3 fusion). Capture and analyte binding were performed in HBS-EP+ buffer. The captured antigen and antibodies were removed between each cycle to ensure a fresh binding surface for each concentration of […]. The resulting sensorgrams were fitted globally using a 1:1 binding model to calculate on- and off-rates (kassoc and kdissoc, respectively), and dissociation constants as a measure of overall affinity (KD).

[2] = biological target: T2, soluble cynomolgus monkey TIM-3 fusion (cynomolgus monkey, UniProt A0A2K5U3G7 22-195); assay: SPR Biacore T200; captured TIM-3 fusion, antibody flowed over; 1:1 model
T2 construct: The SPR method describes only the human mIgG2a Fc fusion; not shown: mIgG2a Fc i
T2 sequence: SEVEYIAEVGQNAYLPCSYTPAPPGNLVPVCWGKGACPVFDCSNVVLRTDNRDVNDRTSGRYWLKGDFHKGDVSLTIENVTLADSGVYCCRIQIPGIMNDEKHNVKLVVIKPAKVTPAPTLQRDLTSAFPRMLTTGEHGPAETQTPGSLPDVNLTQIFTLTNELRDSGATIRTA

[3] = biological target: T3, native human TIM-3 stably transfected in CHO-K1 cells (human, UniProt Q8TDQ0 22-301); assay: flow cytometry on human TIM-3 expressing CHO-K1 cells, PE anti-human IgG4 detection
T3 construct: whole, on cells; also called cell-surface human TIM-3; human TIM-3 expressing CHO-K1 cells
T3 sequence (looked up): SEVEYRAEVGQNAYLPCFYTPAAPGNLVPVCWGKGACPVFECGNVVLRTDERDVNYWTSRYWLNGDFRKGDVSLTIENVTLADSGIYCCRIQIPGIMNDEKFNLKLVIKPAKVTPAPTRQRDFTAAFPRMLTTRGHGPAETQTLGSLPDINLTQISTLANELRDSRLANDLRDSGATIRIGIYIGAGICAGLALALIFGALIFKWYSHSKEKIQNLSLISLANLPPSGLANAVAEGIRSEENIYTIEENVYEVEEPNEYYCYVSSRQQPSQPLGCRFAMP
Method: (§1) Flow cytometry studies were performed with CHO-K1 cell line clones in which native human or cynomolgus monkey TIM-3 was stably transfected. An exemplary anti-TIM-3 antibody (having heavy and light chains as set forth in SEQ ID NOs: 1 & 2, respectively) was diluted in 3-fold dilutions. Dilutions of exemplary antibody were added to human or cynomolgus monkey TIM-3 expressing CHO-K1 cells (1E5 cells) and incubated on ice. Cells were washed twice and incubated on ice with PE-conjugated goat anti-human IgG4 to detect antibody binding. Cells were washed and resuspended in the presence of propidium iodide to exclude dead cells and fixed before fluorescence was analyzed on a BD FACSArray (BD Biosciences). Data were analyzed for median fluorescence intensity, graphed, and curves fitted for EC₅₀ value calculation in GraphPad Prism (GraphPad Software, Inc.) using a non-linear (sigmoidal) regression analysis.

[4] = biological target: T4, native cynomolgus monkey TIM-3 stably transfected in CHO-K1 cells (cynomolgus monkey, UniProt A0A2K5U3G7 22-294); assay: flow cytometry on cynomolgus monkey TIM-3 expressing CHO-K1 cells, PE anti-human IgG4 detection
T4 construct: whole, on cells; also called cell-surface cynomolgus monkey TIM-3; cynomolgus monkey TIM-3 expressing CHO-K1 cells
T4 sequence: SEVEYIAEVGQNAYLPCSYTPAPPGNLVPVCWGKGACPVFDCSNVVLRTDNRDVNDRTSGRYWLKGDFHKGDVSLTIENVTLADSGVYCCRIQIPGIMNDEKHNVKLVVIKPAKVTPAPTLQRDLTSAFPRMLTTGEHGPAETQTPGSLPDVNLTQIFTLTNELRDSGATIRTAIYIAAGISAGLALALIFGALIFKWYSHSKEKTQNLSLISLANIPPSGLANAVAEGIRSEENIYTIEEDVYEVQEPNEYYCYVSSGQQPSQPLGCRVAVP
Method: as §1

Kd [1]: 0.007 nM
koff [1]: 0.00011 s⁻¹
kon [1]: 1.5e+07 M⁻¹ s⁻¹
Kd [2]: 0.017 nM
koff [2]: 0.00019 s⁻¹
kon [2]: 1.1e+07 M⁻¹ s⁻¹
EC50 [3]: 0.17 nM
EC50 [4]: 0.27 nM
B1: exemplary anti-TIM-3 antibody (having heavy and light chains as set forth in SEQ ID NOs: 1 & 2, respectively) (antibody, human IgG4 S228P, kappa, V domains shown)
VH: EVQLLESGGGLVQPGGSLRLSCAAASGFTFSSYDMSWVRQAPGKGLDWVSTISGGGTYTYYQDSVKGRFTISRDNSKNTLYLQMNSLRAEDTAVYYCASMDYWGQGTTVTVSS
VL: DIQMTQSPSSLSASVGDRVTITCRASQSIRRYLNWYHQKPGKAPKLLIYGASTLQSGVPSRFSGSGSGTDFTLTISSLQPEDFAVYYCQQSHSAPLTFGGGTKVEIKR
modifications: N-glycosylation at asparagine residue 290 of SEQ ID NO:1
notes: Humanized IgG4 (human IGHG4*01) / kappa (IGKC*01); also called exemplary humanized monoclonal anti-TIM-3 antibody; anti-TIM-3 mAb
